The nature of the data set: yeast display, Sf9 membrane polyspecificity reagent, FACS + sequencing; frameworks hold sequencing errors. In a few lines: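 Galactose induction of a Saccharomyces cerevisiae BJ5465 synthetic nanobody display library ran 36–48 hours. The cells were then stained for 1 hour at 4 °C with 10% biotinylated, detergent-solubilized Sf9 membrane reagent, pulled down on streptavidin microbeads and FACS-sorted into low and high (top ~1%) gates on expression and reagent-binding fluorescence. Labels for polyreactivity follow the gate of origin.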
Take “QVQLVESGGGLVQAGGSLRLSCAASGRTFSVYAMGWYRQATGKEREFVAAISFSGGRTYYADSVKGRFTISRDNAKNTVYLQINSLKPEDTAVYYCAKRGSYYNPMGYWGQGTQVTVSS”: the “polyreactivity (PSR sort gate)” value is “high polyreactivity”.

In the case of “QVQLVESGGGLVQAGGSLRLSCAASGRTFSVYTMGWYRQAPGKERELVAAISSTGRTNYADSVKGRFTISRDNAKNTVYLQMNSLKPEDTAVYYCNAGVRNSYTRQALVTAYYLYYYWGQGTQVTVSS”, the “polyreactivity (PSR sort gate)” value was “high polyreactivity”.

As to “QVQLVESGGGLVQAGGSLRLSCAASGRTFSYNAMGWYRPAPGKERELVAVITYSGGSTYYADSVKGRFTISRDNAKNTVYLQMNSLKPEDTAVYYCNADGYRPYQNGYDYWGQGTQVTVSS”, the “polyreactivity (PSR sort gate)” value is given as “high polyreactivity”.

Turning to “QVQLVESGGGLVQAGGSLRLSCAASGRTFSYNAMGWYRQAPGKERELVAAIDWSGGRTYYADSVKGRFTISRDNAKNTVYLQMNSLKPEDTAVYYCNKAVRSSYSAWQYGMYYWGQGTQVTVSS”, the “polyreactivity (PSR sort gate)” value is “high polyreactivity”.

Turning to “QVQLVESGGGLVQAGGSLRLSCAASGRTFSYNAMGWYRQAPGKERELVARISSGGSTNYADSVKGRFTISRDNAKNTVYLQMNSLKPEDTAVYYCNAGSYVWEEDYCGQGTQVTVSS”, the “polyreactivity (PSR sort gate)” value is listed as “high polyreactivity”.

As to “QVQLVESGGGLVQAGGSLRLSCAASGRTFSYNAMGWYRQAPGKEWELVAAISWGGGSTYYADSVKGRFTISRDNAKNTVYLQMNSLKPEDTAVYYCAAKRLTSRQHDYWGQGTQVTVSS”, the “polyreactivity (PSR sort gate)” value is listed as “high polyreactivity”.

Turning to “QVQLVESGGGLVQAGGSLRLSCAASGRTFSYNVMGWYRQAPGKERELVASTYYADSVKGRFTISRDIAKNTVYLQMNSVKPEDTAVYYCNRDKPGLFFTSYNYSSSYDYWGQGTLVTVSS”, the “polyreactivity (PSR sort gate)” value is given as “low polyreactivity”.

On to “QVQLVESGGGLVQAGGSLRLSCAASGRTFSYYAMGWYRKAPGKERELVASISGGGRTNYADSVKGRFTISRDNAKNTVYLQMNSLKPEDTAVYYCAARYLITRQYKRGYWGQGTQVTVSS”, for which the “polyreactivity (PSR sort gate)” value is “high polyreactivity”.

As for “QVQLVESGGGLVQAGGSLRLSCAASGRTFSYYAMGWYRQAPGKERELVASIRKSGASTYYADSVKGRFTISRDNAKNTVYLQMNSLKPEDTAVYYCAARGSRKPDWGLGYWGQGTQVTVSS”, the “polyreactivity (PSR sort gate)” value is reported as “high polyreactivity”.

As for “QVQLVESGGGLVQAGGSLRLSCAASGRTFSYYAMGWYRQAPGKERELVASISYSAGRTYYADSVKGRFTISRDNAKNTVYLQMNSLKPEDTAVYYCAVRGVRRFPVRTGSYTRYGDYYWGQGTQVTVSS”, the “polyreactivity (PSR sort gate)” value is “high polyreactivity”.

For “QVQLVESGGGLVQAGGSLRLSCAASGRTFSYYAMGWYRQAPGKERELVASITSGGRTYYADSVKGRFTISRDNAKNTFYLQMNSLKPEDTAVYYCNVDNQYLDRYGRRYGYWGQGTQVTVSS”, the “polyreactivity (PSR sort gate)” value is on record as “low polyreactivity”.

“QVQLVESGGGLVQAGGSLRLSCAASGRTFSYYAMGWYRQAPGKERELVATIRFSAGGTYYADSVKGRFTISRDNAKNTVYLQMNSLKPEDTAVYYCNADSIDPFLYDYWGQGTQVTVSS”: the “polyreactivity (PSR sort gate)” value was “low polyreactivity”.

On to “QVQLVESGGGLVQAGGSLRLSCAASGRTFSYYAMGWYRQATGKERELVAAINSSGGRTYYADSVKGRFTISRDNAKNTVYLQMNSLKPEDTAVYYCAARSYSTSSHHGYWGQGTQVTVSS”, for which the “polyreactivity (PSR sort gate)” value is reported as “high polyreactivity”.

Regarding “QVQLVESGGGLVQAGGSLRLSCAASGRTFSYYGMGWYRKAPGKERELVAGISIRGSHTYYADSVKGRFTISRDNAKNTVFLQMNSLKPEDTGVYYCAARWIGLYSYEYWGQGSQVTVSS”, the “polyreactivity (PSR sort gate)” value was “high polyreactivity”.

“QVQLVESGGGLVQAGGSLRLSCAASGRTFTANAMGWYRQAPGKERELVAAIRWRGGSTSYADSVKGRFTISRDNAKNTVYLQMNSLKPEDTAVYYCAAESRWRSSAGGYYYWGQGTQVTVSS”: the “polyreactivity (PSR sort gate)” value is reported as “low polyreactivity”.

“QVQLVESGGGLVQAGGSLRLSCAASGRTFTAYAMGWYRQAPGKERELVAAITSGGSTYYADSVKGRFTISRDNAKNTVYLQMNSLKPEDTAVYYCATDLYSFYWPEYEYWGQGTQVTVSS”: the “polyreactivity (PSR sort gate)” value is reported as “low polyreactivity”.

For the origin of these results see the nanobody polyreactivity screen of Harvey et al. (2022).
